# Measured values as given in the supplement of paper PMC10065799, “High-throughput profiling of sequence recognition by tyrosine kinases and SH2 domains using bacterial peptide display” (eLife, 2023).
# System: AncSZ
# Assay: phosphorylation enrichment, bacterial display (enrichment ratio); higher = better substrate or ligand; peptides without Tyr show the background
# 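Note: 11-residue human phosphosite peptides and single-mutation variants displayed on the E. coli surface, counted by deep sequencing, each peptide's frequency after selection divided by its frequency in the unselected input library; frequency after pTyr selection over input frequency; kinase dosed for 20-30% of maximal phosphorylation in three min.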
row,Sequence,phosphorylation enrichment
1,RQNNSYTCFTA [SLC20A2_Y386_R382Q_YF],1.04
2,SARHHYESLQT [BIN1_Y157],0.532
3,EVGHVYLFLQP [ITGA2B_Y360_R358H],1.33
4,SSRKEYFIGGG [GYPC_Y126],0.482
5,RKKEEYKMALY [F8_Y1990],0.492
6,VHLYAYDWISI [BEST1_Y227_G222V],2.32
7,REVPVYIGEDS [SYNM_Y460],1.05
8,HLQQSNLPRGT [TEX45_Y396_Y396N],0.639
9,KEAALYPHLPP [SQSTM1_Y383],0.67
10,KFLENYFDLKK [MMP3_Y41_YF],1.06
11,NARGLYYKLHN [GATA2_Y376_C373R],1.11
12,HSKGIYFVQLE [MGAT4B_Y262_Q257H_YF],1.87
13,WASSSYRETPS [SORBS1_Y79_R74W],0.57
14,NHQYDYTFDWT [CSNK1A1_Y294],1.38
15,PAIERYVVVCK [RHO_Y136_L131P],1.08
16,PFSNPYENSLI [EPOR_Y489_YF],1.92
17,FSNKLYFQLEQ [PDPR_Y109_YF],1.35

row,Sequence,phosphorylation enrichment
1,KVVNEYVTKGQ [MYH7_Y410_G407V],0.806
2,DPHECYAKVFD [ALB_Y394],1.11
3,MWGSDYVHLSR [MAP3K4_Y582_Q584H],0.951
4,NKEPRYQEEPP [TJP2_Y479_D482E],1.1
5,GYIISYREEEQ,1.79
6,EFGFRYELVQF [UGGT2_Y1289_Y1285F_YF],1.26
7,MGGSLYFSFPD [HIKESHI_Y55_V54L_YF],2.27
8,PFQGAYLEINK [MYO1B_Y967],1.03
9,KFACSYTPVKA [FLNB_Y708_T703K_YF],0.811
10,HNQDGYSYLSR [LDLR_Y845_P848L],0.478
11,KRISCYEASFQ [PFKFB3_Y194_YF],0.973
12,KCCCIYEKPRA [PPP1R11_Y64],2.23
13,RAYRRYLLKQK [SCN2A_Y1919],0.729
14,GDFFCYLAEVA [YWHAG_Y133_R132C_YF],1.33
15,ARLEFCENEKK [IRS1_Y47_Y47C_YF],0.983
16,QNTGDYFDLFG [PTPN11_Y62_YF],8.28

# Target: EPHB1 (UniProt P54762)
# Assay: as above
# Chain of EPHB1 (P54762 whole entry, looked up): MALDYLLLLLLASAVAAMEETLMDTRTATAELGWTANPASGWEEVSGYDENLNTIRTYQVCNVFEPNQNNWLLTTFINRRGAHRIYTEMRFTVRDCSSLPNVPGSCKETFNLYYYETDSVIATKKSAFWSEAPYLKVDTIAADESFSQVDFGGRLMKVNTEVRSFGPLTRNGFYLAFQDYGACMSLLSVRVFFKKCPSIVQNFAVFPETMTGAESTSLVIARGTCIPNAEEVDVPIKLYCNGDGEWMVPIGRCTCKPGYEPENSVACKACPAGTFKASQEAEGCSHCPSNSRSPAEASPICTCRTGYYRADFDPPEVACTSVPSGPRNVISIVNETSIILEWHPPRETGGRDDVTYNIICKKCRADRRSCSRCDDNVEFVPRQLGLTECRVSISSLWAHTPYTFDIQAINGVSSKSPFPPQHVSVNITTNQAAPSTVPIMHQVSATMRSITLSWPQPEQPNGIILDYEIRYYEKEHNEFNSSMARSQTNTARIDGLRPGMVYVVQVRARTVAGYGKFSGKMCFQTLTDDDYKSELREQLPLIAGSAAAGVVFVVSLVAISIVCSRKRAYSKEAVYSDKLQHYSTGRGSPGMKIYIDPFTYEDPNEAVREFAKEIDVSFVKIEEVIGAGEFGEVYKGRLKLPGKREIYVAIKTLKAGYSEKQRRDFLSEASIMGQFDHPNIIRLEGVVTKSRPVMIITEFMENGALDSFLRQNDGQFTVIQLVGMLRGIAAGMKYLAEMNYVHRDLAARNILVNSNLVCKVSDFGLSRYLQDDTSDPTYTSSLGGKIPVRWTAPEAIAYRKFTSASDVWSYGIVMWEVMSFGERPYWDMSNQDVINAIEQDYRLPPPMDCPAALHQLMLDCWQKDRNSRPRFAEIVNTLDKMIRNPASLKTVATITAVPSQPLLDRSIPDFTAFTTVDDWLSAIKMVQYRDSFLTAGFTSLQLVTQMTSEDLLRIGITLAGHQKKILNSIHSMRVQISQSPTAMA
row,Sequence,phosphorylation enrichment
1,RQNNSYTCFTA [SLC20A2_Y386_R382Q_YF],0.819
2,SARHHYESLQT [BIN1_Y157],0.431
3,EVGHVYLFLQP [ITGA2B_Y360_R358H],0.735
4,SSRKEYFIGGG [GYPC_Y126],0.423
5,RKKEEYKMALY [F8_Y1990],0.337
6,VHLYAYDWISI [BEST1_Y227_G222V],7.2
7,REVPVYIGEDS [SYNM_Y460],0.391
8,HLQQSNLPRGT [TEX45_Y396_Y396N],0.447
9,KEAALYPHLPP [SQSTM1_Y383],0.414
10,KFLENYFDLKK [MMP3_Y41_YF],1.94
11,NARGLYYKLHN [GATA2_Y376_C373R],0.595
12,HSKGIYFVQLE [MGAT4B_Y262_Q257H_YF],0.853
13,WASSSYRETPS [SORBS1_Y79_R74W],0.411
14,NHQYDYTFDWT [CSNK1A1_Y294],0.606
15,PAIERYVVVCK [RHO_Y136_L131P],0.896
16,PFSNPYENSLI [EPOR_Y489_YF],0.92
17,FSNKLYFQLEQ [PDPR_Y109_YF],0.849

row,Sequence,phosphorylation enrichment
1,KVVNEYVTKGQ [MYH7_Y410_G407V],0.358
2,DPHECYAKVFD [ALB_Y394],0.593
3,MWGSDYVHLSR [MAP3K4_Y582_Q584H],3.2
4,NKEPRYQEEPP [TJP2_Y479_D482E],0.499
5,GYIISYREEEQ,0.48
6,EFGFRYELVQF [UGGT2_Y1289_Y1285F_YF],0.592
7,MGGSLYFSFPD [HIKESHI_Y55_V54L_YF],7.73
8,PFQGAYLEINK [MYO1B_Y967],0.609
9,KFACSYTPVKA [FLNB_Y708_T703K_YF],0.521
10,HNQDGYSYLSR [LDLR_Y845_P848L],0.527
11,KRISCYEASFQ [PFKFB3_Y194_YF],0.58
12,KCCCIYEKPRA [PPP1R11_Y64],1.07
13,RAYRRYLLKQK [SCN2A_Y1919],0.353
14,GDFFCYLAEVA [YWHAG_Y133_R132C_YF],0.863
15,ARLEFCENEKK [IRS1_Y47_Y47C_YF],0.636
16,QNTGDYFDLFG [PTPN11_Y62_YF],23.3
